Kd data for eight molecules are collected here from paper PMC7335187 (2020).

Sequences and labels used below:
T1: Atg8 (1-116) K26P (S. cerevisiae, UniProt P38182 1-116, K26P)
T1 sequence: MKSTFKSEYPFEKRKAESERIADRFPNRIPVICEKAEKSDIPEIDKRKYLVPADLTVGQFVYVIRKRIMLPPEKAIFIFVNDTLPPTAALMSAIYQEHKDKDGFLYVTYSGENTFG

The target of the first experiment is GABARAP WT (human GABARAP 1-116) (human, UniProt O95166 1-116). The experiment in a line: ITC. Background: Isothermal titration calorimetry measures the heat released or taken up as one component is titrated into another.
GABARAP WT (human GABARAP 1-116), sequence (O95166 1-116): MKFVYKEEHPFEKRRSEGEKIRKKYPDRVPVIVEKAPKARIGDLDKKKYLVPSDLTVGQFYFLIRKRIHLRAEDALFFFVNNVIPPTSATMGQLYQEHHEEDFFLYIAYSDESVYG
Molecule GPEEDTDTEEGDDFELLDQSELDQIESELY [FAM134B444-470 WT peptide] yielded a Kd of 0.14 µM.
Molecule DDFELLDQY [FAM134B453-460 (Δhelix) peptide] registered a dissociation constant (Kd) of 2.54 µM.
Regarding GPHSSGNGNDFEMITKEELEQQTDY [SEC62355-376 WT peptide], the affinity, expressed as Kd, was 0.19 µM.
NDFEMITKY [SEC62361-368 (Δhelix) peptide] registered a Kd of 3.38 µM. Against the preceding molecule, the Kd is about 18-fold higher.
GPEEDTDTEEGDDFALLDQSALDQIESELY [FAM134B444-470 E456A E462A peptide] displayed an equilibrium dissociation constant (Kd) of 3.39 µM. The Kd values of the last two molecules are within 1.5-fold of each other.

A further experiment addresses T1, Atg8 (1-116) K26P. The experiment in a line: ITC.
Regarding TSTEAPNDYDFMEDILDET [Atg40 peptide F238A], the Kd came out at 4.31 µM. That is a single-digit micromolar value.
In the case of EFPNDYDFAEDILDET [Atg40^237–252 M245A peptide], the Kd was determined as 21.7 µM.
Same read-out and setting: the result for TSTEFPNDADFMEDILDET [Atg40 peptide Y242A] reads 32.7 µM.

In general, Kd refers to a measure of binding affinity in units of concentration. Low values mean tighter binding, high ones weaker binding.
